Earlier results on one molecule are cited in patent US20240117402A1, “METHODS FOR (POLY) PEPTIDE TANDEM LIGATION AND CYCLIZATION” (Nanyang Technological University, priority 2021, published 2024).

The conditions of this series: cyclization of a model peptide; cited from earlier work.

B1: VyPAL2: plant legumain from the Viola Yedoensis family, highly active peptidyl asparaginyl ligase (SEQ ID NO:1) (protein)
chain: DSIGTRWAVLIAGSKGYHNYRHQADVCHMYQILRKGGVKDENIIVFMYDDIAYNESNPFPGIIINKPGGENVYKGVPKDYTGEDINNVNFLAAILGNKSAIIGGSGKVLDTSPNDHIFIYYADHGAPGKIGMPSKPYLYADDLVDTLKQKAATGTYKSMVFYVEACNAGSMFEGLLPEGTNIYAMAASNSTEGSWITYCPGTPDFPPEFDVCLGDLWSITFLEDCDAHNLRTETVHQQFELVKKKIAYASTVSQYGDIPISKDSLSVYM
modifications: VyPAL2 core domain
Turning to B1, the catalytic efficiency is 274,325 M^−1 s^−1.
